According to patent US20180155451A1 (published 2018):

T1: FcγRIIa R (human, UniProt P12318 34-217)
T1 construct: extracellular domain; also called FcgRIIa R type; 2aR
T1 sequence (looked up): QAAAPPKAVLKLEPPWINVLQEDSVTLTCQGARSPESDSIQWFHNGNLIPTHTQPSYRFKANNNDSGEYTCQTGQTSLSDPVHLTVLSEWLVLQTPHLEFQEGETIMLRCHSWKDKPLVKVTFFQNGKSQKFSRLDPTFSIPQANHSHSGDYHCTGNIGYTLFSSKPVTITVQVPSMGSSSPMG

B1: GpH7-B3 variant N325_06M/GpL16-k0 (antibody, human IgG1, kappa)
heavy: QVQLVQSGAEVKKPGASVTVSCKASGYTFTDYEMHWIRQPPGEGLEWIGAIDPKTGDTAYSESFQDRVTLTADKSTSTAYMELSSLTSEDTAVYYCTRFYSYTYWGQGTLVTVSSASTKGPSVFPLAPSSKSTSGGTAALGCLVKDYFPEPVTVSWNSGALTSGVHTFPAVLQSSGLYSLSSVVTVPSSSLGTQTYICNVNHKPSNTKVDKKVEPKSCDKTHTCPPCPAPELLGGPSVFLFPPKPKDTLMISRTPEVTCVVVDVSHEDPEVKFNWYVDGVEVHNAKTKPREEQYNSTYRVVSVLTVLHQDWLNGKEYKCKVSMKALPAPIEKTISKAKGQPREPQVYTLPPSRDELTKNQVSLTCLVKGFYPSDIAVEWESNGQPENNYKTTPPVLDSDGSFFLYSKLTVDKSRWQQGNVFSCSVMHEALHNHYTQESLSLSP
light: DIVMTQSPLSLPVTPGEPASISCQASESLVHSNRNTYLHWYLQKPGQSPQLLIYKVSNRFSGVPDRFSGSGSGTDFTLKISRVEAEDVGVYYCSQNTHVPPTFGQGTKVEIERTVAAPSVFIFPPSDEQLKSGTASVVCLLNNFYPREAKVQWKVDNALQSGNSQESVTEQDSKDSTYSLSSTLTLSKADYEKHKVYACEVTHQGLSSPVTKSFNRGEC
notes: also called Ho Ab N325_06M
B2: GpH7-B3 variant I336_06M/GpL16-k0 (antibody, human IgG1, kappa)
heavy: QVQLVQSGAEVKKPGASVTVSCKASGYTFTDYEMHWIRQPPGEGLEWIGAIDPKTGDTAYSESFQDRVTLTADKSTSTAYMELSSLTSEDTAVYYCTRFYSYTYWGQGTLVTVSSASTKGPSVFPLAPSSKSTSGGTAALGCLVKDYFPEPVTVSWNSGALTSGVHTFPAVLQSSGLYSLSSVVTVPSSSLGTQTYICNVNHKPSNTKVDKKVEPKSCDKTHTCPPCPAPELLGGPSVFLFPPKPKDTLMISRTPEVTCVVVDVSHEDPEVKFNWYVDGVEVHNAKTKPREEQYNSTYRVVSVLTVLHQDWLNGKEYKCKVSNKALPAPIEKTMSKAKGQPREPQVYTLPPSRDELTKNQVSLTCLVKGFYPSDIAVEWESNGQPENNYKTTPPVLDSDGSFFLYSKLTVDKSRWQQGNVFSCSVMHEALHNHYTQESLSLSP
light: B1 light
notes: also called Ho Ab I336_06M
B3: GpH7-B3 variant K326_08L/GpL16-k0 (antibody, human IgG1, kappa)
heavy: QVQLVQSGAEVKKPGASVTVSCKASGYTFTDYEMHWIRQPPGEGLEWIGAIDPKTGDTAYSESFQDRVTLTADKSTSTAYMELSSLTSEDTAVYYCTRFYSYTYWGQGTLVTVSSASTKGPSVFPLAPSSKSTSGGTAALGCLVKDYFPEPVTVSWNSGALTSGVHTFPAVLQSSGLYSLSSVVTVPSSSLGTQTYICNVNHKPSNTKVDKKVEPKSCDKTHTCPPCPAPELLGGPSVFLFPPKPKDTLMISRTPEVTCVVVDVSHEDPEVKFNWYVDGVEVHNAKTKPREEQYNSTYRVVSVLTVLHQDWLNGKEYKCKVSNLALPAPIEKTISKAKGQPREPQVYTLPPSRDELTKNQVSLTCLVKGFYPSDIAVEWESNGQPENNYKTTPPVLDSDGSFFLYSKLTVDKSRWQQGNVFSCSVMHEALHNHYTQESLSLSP
light: B1 light
notes: also called Ho Ab K326_08L
B4: GpH7-B3 variant K326_18N/GpL16-k0 (antibody, human IgG1, kappa)
heavy: not shown
light: B1 light
notes: also called Ho Ab K326_18N
B5: GpH7-B3 variant I332_14T/GpL16-k0 (antibody, human IgG1, kappa)
heavy: not shown
light: B1 light
notes: also called Ho Ab I332_14T
B6: GpH7-B3 variant A327_09D/GpL16-k0 (antibody, human IgG1, kappa)
heavy: not shown
light: B1 light
notes: also called Ho Ab A327_09D
B7: GpH7-B3 variant G237_10E/GpL16-k0 (antibody, human IgG1, kappa)
heavy: not shown
light: B1 light
notes: also called Ho Ab G237_10E
B8: GpH7-B3 variant G237_06M/GpL16-k0 (antibody, human IgG1, kappa)
heavy: not shown
light: B1 light
notes: also called Ho Ab G237_06M
B9: GpH7-B3 variant G237_20W/GpL16-k0 (antibody, human IgG1, kappa)
heavy: not shown
light: B1 light
notes: also called Ho Ab G237_20W
B10: GpH7-B3 variant H268_05P/GpL16-k0 (antibody, human IgG1, kappa)
heavy: not shown
light: B1 light
notes: also called Ho Ab H268_05P
B11: GpH7-B3 variant K326_20W/GpL16-k0 (antibody, human IgG1, kappa)
heavy: not shown
light: B1 light
notes: also called Ho Ab K326_20W
B12: GpH7-B3 variant I336_18N/GpL16-k0 (antibody, human IgG1, kappa)
heavy: not shown
light: B1 light
notes: also called Ho Ab I336_18N
B13: GpH7-B3 variant A330_15Y/GpL16-k0 (antibody, human IgG1, kappa)
heavy: not shown
light: B1 light
notes: also called Ho Ab A330_15Y
B14: GpH7-B3 variant G237_04F/GpL16-k0 (antibody, human IgG1, kappa)
heavy: not shown
light: B1 light
notes: also called Ho Ab G237_04F
B15: GpH7-B3 variant H268_03V/GpL16-k0 (antibody, human IgG1, kappa)
heavy: not shown
light: B1 light
notes: also called Ho Ab H268_03V
B16: GpH7-B3 variant K326_15Y/GpL16-k0 (antibody, human IgG1, kappa)
heavy: not shown
light: B1 light
notes: also called Ho Ab K326_15Y
B17: GpH7-B3 variant H268_20W/GpL16-k0 (antibody, human IgG1, kappa)
heavy: not shown
light: B1 light
notes: also called Ho Ab H268_20W
B18: GpH7-B3 variant G237_09D/GpL16-k0 (antibody, human IgG1, kappa)
heavy: not shown
light: B1 light
notes: also called Ho Ab G237_09D
B19: GpH7-B3 variant A330_11K/GpL16-k0 (antibody, human IgG1, kappa)
heavy: not shown
light: B1 light
notes: also called Ho Ab A330_11K
B20: GpH7-B3 variant E333_07I/GpL16-k0 (antibody, human IgG1, kappa)
heavy: not shown
light: B1 light
notes: also called Ho Ab E333_07I
B21: GpH7-B3 variant E333_09D/GpL16-k0 (antibody, human IgG1, kappa)
heavy: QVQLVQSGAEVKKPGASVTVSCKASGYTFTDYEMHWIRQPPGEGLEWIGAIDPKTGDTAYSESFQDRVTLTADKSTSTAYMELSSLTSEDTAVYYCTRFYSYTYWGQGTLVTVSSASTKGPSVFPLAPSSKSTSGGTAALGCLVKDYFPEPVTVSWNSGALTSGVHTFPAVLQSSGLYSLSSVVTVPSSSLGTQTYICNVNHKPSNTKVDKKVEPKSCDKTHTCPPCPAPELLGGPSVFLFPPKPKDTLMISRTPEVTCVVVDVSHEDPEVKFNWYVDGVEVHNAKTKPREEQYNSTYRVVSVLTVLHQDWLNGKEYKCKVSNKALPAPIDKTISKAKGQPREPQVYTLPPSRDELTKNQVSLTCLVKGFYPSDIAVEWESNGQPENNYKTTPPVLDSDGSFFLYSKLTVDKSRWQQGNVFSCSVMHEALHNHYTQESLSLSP
light: B1 light
notes: also called Ho Ab E333_09D
B22: GpH7-B3 variant K334_02A/GpL16-k0 (antibody, human IgG1, kappa)
heavy: not shown
light: B1 light
notes: also called Ho Ab K334_02A
B23: GpH7-B3 variant A330_01G/GpL16-k0 (antibody, human IgG1, kappa)
heavy: not shown
light: B1 light
notes: also called Ho Ab A330_01G
B24: GpH7-B3 variant G236_14T/GpL16-k0 (antibody, human IgG1, kappa)
heavy: not shown
light: B1 light
notes: also called Ho Ab G236_14T
B25: GpH7-B3 variant A330_12R/GpL16-k0 (antibody, human IgG1, kappa)
heavy: not shown
light: B1 light
notes: also called Ho Ab A330_12R
B26: GpH7-B3 variant E333_08L/GpL16-k0 (antibody, human IgG1, kappa)
heavy: not shown
light: B1 light
notes: also called Ho Ab E333_08L
B27: GpH7-B3 variant H268_01G/GpL16-k0 (antibody, human IgG1, kappa)
heavy: not shown
light: B1 light
notes: also called Ho Ab H268_01G
B28: GpH7-B3 variant A330_19Q/GpL16-k0 (antibody, human IgG1, kappa)
heavy: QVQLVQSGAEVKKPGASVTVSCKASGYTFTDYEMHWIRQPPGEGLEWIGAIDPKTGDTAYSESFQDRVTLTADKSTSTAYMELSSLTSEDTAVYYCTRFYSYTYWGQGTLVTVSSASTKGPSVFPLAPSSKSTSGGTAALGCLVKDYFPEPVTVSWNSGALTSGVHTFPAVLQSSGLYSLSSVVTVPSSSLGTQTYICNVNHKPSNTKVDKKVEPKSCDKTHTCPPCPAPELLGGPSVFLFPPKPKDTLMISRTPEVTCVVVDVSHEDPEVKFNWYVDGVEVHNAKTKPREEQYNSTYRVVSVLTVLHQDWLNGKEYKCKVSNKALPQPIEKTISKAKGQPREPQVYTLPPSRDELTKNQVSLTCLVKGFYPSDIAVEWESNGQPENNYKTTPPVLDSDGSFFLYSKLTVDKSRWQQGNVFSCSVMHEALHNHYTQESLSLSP
light: B1 light
notes: also called Ho Ab A330_19Q
B29: GpH7-B3 variant H268_12R/GpL16-k0 (antibody, human IgG1, kappa)
heavy: not shown
light: B1 light
notes: also called Ho Ab H268_12R
B30: GpH7-B3 variant K326_03V/GpL16-k0 (antibody, human IgG1, kappa)
heavy: not shown
light: B1 light
notes: also called Ho Ab K326_03V
B31: GpH7-B3 variant K326_07I/GpL16-k0 (antibody, human IgG1, kappa)
heavy: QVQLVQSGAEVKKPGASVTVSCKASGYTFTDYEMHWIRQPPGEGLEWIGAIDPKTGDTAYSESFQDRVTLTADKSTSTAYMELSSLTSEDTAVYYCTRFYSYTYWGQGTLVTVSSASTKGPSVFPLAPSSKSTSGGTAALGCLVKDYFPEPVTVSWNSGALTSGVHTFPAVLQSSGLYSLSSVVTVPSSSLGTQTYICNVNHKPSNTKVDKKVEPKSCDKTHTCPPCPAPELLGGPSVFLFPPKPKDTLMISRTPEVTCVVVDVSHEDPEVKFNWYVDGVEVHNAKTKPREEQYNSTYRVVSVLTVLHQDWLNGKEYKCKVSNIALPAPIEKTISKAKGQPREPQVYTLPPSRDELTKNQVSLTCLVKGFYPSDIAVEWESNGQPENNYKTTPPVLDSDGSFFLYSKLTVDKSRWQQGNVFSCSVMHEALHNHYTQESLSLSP
light: B1 light
notes: also called Ho Ab K326_07I
B32: GpH7-B3 variant E269_09D/GpL16-k0 (antibody, human IgG1, kappa)
heavy: not shown
light: B1 light
notes: also called Ho Ab E269_09D
B33: GpH7-B3 variant K326_12R/GpL16-k0 (antibody, human IgG1, kappa)
heavy: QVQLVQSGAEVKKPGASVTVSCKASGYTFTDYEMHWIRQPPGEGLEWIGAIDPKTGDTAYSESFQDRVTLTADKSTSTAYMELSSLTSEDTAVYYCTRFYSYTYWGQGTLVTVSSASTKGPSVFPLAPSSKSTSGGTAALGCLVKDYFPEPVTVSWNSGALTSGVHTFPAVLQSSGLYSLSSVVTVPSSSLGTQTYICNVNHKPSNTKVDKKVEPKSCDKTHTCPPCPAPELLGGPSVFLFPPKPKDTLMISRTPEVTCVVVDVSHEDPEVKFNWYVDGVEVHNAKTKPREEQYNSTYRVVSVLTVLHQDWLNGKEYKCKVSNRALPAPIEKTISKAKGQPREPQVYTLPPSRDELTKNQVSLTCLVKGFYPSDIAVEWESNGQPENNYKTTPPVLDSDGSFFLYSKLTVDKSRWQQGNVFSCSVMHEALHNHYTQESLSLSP
light: B1 light
notes: also called Ho Ab K326_12R
B34: GpH7-B3 variant G237_18N/GpL16-k0 (antibody, human IgG1, kappa)
heavy: not shown
light: B1 light
notes: also called Ho Ab G237_18N
B35: GpH7-B3 variant E333_04F/GpL16-k0 (antibody, human IgG1, kappa)
heavy: not shown
light: B1 light
notes: also called Ho Ab E333_04F
B36: GpH7-B3 variant H268_15Y/GpL16-k0 (antibody, human IgG1, kappa)
heavy: not shown
light: B1 light
notes: also called Ho Ab H268_15Y
B37: GpH7-B3 variant E333_15Y/GpL16-k0 (antibody, human IgG1, kappa)
heavy: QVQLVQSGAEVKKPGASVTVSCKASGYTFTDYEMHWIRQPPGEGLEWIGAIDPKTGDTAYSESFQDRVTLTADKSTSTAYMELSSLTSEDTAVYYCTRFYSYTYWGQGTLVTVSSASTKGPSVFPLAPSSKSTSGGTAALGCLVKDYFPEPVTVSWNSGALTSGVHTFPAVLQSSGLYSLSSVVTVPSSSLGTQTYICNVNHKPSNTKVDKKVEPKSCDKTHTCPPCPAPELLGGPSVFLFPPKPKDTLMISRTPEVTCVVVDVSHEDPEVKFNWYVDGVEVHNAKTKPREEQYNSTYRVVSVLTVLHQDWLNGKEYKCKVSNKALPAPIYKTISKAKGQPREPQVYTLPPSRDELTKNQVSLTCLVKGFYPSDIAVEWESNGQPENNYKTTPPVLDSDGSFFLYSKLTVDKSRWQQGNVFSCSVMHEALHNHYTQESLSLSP
light: B1 light
notes: also called Ho Ab E333_15Y
B38: GpH7-B3 variant G237_02A/GpL16-k0 (antibody, human IgG1, kappa)
heavy: not shown
light: B1 light
notes: also called Ho Ab G237_02A
B39: GpH7-B3 variant I332_06M/GpL16-k0 (antibody, human IgG1, kappa)
heavy: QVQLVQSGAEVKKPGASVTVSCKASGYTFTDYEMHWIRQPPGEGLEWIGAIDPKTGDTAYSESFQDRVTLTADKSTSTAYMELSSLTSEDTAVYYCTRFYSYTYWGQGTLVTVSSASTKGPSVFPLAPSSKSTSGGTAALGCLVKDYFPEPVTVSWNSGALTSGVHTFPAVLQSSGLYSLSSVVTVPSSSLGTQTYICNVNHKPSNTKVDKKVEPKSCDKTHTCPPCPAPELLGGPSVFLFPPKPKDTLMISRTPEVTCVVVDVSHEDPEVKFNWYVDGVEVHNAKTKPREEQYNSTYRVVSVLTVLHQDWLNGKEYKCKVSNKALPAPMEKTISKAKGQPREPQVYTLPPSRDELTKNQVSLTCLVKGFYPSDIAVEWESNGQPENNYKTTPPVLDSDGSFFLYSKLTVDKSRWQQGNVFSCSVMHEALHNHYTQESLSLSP
light: B1 light
notes: also called Ho Ab I332_06M
B40: GpH7-B3 variant G237_08L/GpL16-k0 (antibody, human IgG1, kappa)
heavy: not shown
light: B1 light
notes: also called Ho Ab G237_08L
B41: GpH7-B3 variant I336_08L/GpL16-k0 (antibody, human IgG1, kappa)
heavy: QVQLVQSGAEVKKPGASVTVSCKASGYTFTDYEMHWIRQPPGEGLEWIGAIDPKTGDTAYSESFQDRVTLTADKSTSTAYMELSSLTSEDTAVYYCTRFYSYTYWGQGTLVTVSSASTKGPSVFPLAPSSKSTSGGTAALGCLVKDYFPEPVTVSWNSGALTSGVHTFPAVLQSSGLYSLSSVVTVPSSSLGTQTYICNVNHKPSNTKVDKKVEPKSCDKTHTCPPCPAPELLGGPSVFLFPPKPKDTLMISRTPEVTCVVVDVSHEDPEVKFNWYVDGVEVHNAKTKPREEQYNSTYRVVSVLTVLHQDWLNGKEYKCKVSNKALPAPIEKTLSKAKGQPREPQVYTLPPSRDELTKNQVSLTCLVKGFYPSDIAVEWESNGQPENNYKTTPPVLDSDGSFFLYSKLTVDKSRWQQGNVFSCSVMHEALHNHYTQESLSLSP
light: B1 light
notes: also called Ho Ab I336_08L
B42: GpH7-B3 variant G237_13S/GpL16-k0 (antibody, human IgG1, kappa)
heavy: not shown
light: B1 light
notes: also called Ho Ab G237_13S
B43: GpH7-B3 variant E333_05P/GpL16-k0 (antibody, human IgG1, kappa)
heavy: not shown
light: B1 light
notes: also called Ho Ab E333_05P
B44: GpH7-B3 variant G237_19Q/GpL16-k0 (antibody, human IgG1, kappa)
heavy: not shown
light: B1 light
notes: also called Ho Ab G237_19Q
B45: GpH7-B3 variant H268_11K/GpL16-k0 (antibody, human IgG1, kappa)
heavy: not shown
light: B1 light
notes: also called Ho Ab H268_11K
B46: GpH7-B3 variant A330_05P/GpL16-k0 (antibody, human IgG1, kappa)
heavy: not shown
light: B1 light
notes: also called Ho Ab A330_05P
B47: GpH7-B3 variant K326_04F/GpL16-k0 (antibody, human IgG1, kappa)
heavy: not shown
light: B1 light
notes: also called Ho Ab K326_04F
B48: GpH7-B3 variant A327_10E/GpL16-k0 (antibody, human IgG1, kappa)
heavy: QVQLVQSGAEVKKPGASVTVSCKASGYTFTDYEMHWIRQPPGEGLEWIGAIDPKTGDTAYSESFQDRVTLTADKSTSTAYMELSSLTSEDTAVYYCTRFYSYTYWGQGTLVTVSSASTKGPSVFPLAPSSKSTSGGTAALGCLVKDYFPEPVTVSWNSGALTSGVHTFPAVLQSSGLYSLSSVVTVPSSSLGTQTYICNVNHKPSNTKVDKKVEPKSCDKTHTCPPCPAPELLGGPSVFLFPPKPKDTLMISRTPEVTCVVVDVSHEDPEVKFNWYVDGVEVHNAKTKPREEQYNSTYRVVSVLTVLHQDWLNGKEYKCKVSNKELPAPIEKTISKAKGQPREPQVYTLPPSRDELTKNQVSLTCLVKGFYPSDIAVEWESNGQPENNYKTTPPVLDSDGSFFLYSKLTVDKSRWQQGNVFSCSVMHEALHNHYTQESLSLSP
light: B1 light
notes: also called Ho Ab A327_10E
B49: GpH7-A5/GpH7-B3 variant P331_16H/GpL16-k0 (antibody, human IgG1, kappa)
heavy 1: not shown
heavy 2: not shown
light: B1 light
notes: also called He Ab P331_16H
B50: GpH7-A5/GpH7-B3 variant P331_15Y/GpL16-k0 (antibody, human IgG1, kappa)
heavy 1: not shown
heavy 2: not shown
light: B1 light
notes: also called He Ab P331_15Y
B51: GpH7-A5/GpH7-B3 variant S239_10E/GpL16-k0 (antibody, human IgG1, kappa)
heavy 1: not shown
heavy 2: not shown
light: B1 light
notes: also called He Ab S239_10E
B52: GpH7-A5/GpH7-B3 variant S267_03V/GpL16-k0 (antibody, human IgG1, kappa)
heavy 1: not shown
heavy 2: not shown
light: B1 light
notes: also called He Ab S267_03V
B53: GpH7-A5/GpH7-B3 variant P331_20W/GpL16-k0 (antibody, human IgG1, kappa)
heavy 1: not shown
heavy 2: not shown
light: B1 light
notes: also called He Ab P331_20W
B54: GpH7-A5/GpH7-B3 variant S239_18N/GpL16-k0 (antibody, human IgG1, kappa)
heavy 1: not shown
heavy 2: not shown
light: B1 light
notes: also called He Ab S239_18N
B55: GpH7-A5/GpH7-B3 variant S239_08L/GpL16-k0 (antibody, human IgG1, kappa)
heavy 1: not shown
heavy 2: not shown
light: B1 light
notes: also called He Ab S239_08L

Each binder was assayed against T1, FcγRIIa R (assay: SPR Biacore; vs GpH7-B3/GpL16-k0 =100).
Experimental: Analysis of interaction between objective antibody and the FcγR was carried out using Biacore T100 (GE Healthcare). HBS-EP+ (GE Healthcare) was used as the running buffer, and the measurement temperature was set to 25° C. Chips produced by immobilizing the antigen peptide by the amine coupling method to a Series S Sencor Chip CM5 (GE Healthcare), or alternatively, chips produced by allowing preliminarily biotinylated antigen peptides to interact with and immobilize onto a Series S Sensor Chip SA (certified) (GE Healthcare) were used. Antibodies of interest were captured onto an antigen peptide-immobilized chip, and allowed to interact to each FcγR diluted with running buffer. To regenerate and repeatedly use the chip, the antibodies captured on the chip were washed off by reacting 10 mM glycine-HCl, pH 1.5.
The FcγR-binding activity of each antibody was assessed primarily using as an indicator the FcγR-binding activity and dissociation constant for FcγR.

| Binder | Ho/Con_2aR |
| --- | --- |
| B1 | 124 % of control |
| B2 | 96.4 % of control |
| B3 | 131 % of control |
| B4 | 113 % of control |
| B5 | 99.6 % of control |
| B6 | 120 % of control |
| B7 | 22.5 % of control |
| B8 | 55.3 % of control |
| B9 | 107 % of control |
| B10 | 95.9 % of control |
| B11 | 120 % of control |
| B12 | 94.5 % of control |
| B13 | 87.5 % of control |
| B14 | 113 % of control |
| B15 | 105 % of control |
| B16 | 134 % of control |
| B17 | 110 % of control |
| B18 | 73.1 % of control |
| B19 | 106 % of control |
| B20 | 98.3 % of control |
| B21 | 96.5 % of control |
| B22 | 100 % of control |
| B23 | 106 % of control |
| B24 | 80 % of control |

| Binder | Ho/Con_2aR |
| --- | --- |
| B25 | 101 % of control |
| B26 | 97.1 % of control |
| B27 | 122 % of control |
| B28 | 99.1 % of control |
| B29 | 98.5 % of control |
| B30 | 139 % of control |
| B31 | 133 % of control |
| B32 | 103 % of control |
| B33 | 95.7 % of control |
| B34 | 73.6 % of control |
| B35 | 92.4 % of control |
| B36 | 106 % of control |
| B37 | 96.2 % of control |
| B38 | 84 % of control |
| B39 | 105 % of control |
| B40 | 56.6 % of control |
| B41 | 105 % of control |
| B42 | 44.4 % of control |
| B43 | 99.9 % of control |
| B44 | 14.3 % of control |
| B45 | 93.4 % of control |
| B46 | 36.2 % of control |
| B47 | 133 % of control |
| B48 | 104 % of control |

Each binder was assayed against T1, FcγRIIa R (assay: SPR Biacore; vs GpH7-A5/GpH7-B3/GpL16-k0 =100).

| Binder | He/Con_2aR |
| --- | --- |
| B49 | 114 % of control |
| B50 | 112 % of control |
| B51 | 135 % of control |
| B52 | 116 % of control |
| B53 | 110 % of control |
| B54 | 111 % of control |
| B55 | 122 % of control |
